The record followed here is paper PMC2745277.

For this data set, the target named is T1, SurR (Pyrococcus furiosus, UniProt Q8U4J2 1-232).
T1 sequence: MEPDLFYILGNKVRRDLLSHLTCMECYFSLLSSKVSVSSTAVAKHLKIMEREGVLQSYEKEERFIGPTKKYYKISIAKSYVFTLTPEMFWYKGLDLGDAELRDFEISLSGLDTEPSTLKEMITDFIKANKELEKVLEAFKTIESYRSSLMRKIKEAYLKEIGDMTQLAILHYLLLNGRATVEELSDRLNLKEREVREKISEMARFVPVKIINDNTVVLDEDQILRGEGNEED
The data set is described as follows: EMSA. A general note: Mobility shift assays separate free from complexed probe on a gel.

B1: SELEX-derived 40-bp probe GTTcacAAC (dsDNA)
DNA 1: GCTTCATCCGTGACGTTCACAACCAAATAGATTGAGGATC
DNA 2: GATCCTCAATCTATTTGGTTGTGAACGTCACGGATGAAGC
In the case of B1, the binding result was “binds”.
